Measured values published in publication PMC2692910.

Target: αB11.4, α-crystallin domain construct of human αB-Crystallin (human) (UniProt P02511)
Assay: 15N NMR relaxation

stoichiometry N: 2
Substance: αB11.4, α-crystallin domain construct of human αB-Crystallin (from UniProt P02511 57-158) (domain or fragment)
